The values that follow come from patent US20160333308A1.

The subject of series [1] is activator protein (ACT) from Bacillus methanolicus PB1.
Series [2] has as its target methanol dehydrogenase MDH2 from Bacillus methanolicus PB1 (Bacillus methanolicus PB1). The series can be described thus: cell-based or functional assay.

Consider “methanol dehydrogenase MDH2 from Bacillus methanolicus PB1”, for which, in series [1], the “Km for methanol of MDH2 with ACT, crude lysates” value is listed as “a Km of 119 mM”.

As to “activator protein (ACT) from Bacillus methanolicus PB1”, the specific activity of MDH2 with ACT, crude lysates in series [2] was 0.009 µmol/min/mg.
